Assay results from patent US20230340160A1 (published 2023).

T1: human CEA expressed on tumor cells (human, UniProt P06731 35-702)
T1 sequence (looked up): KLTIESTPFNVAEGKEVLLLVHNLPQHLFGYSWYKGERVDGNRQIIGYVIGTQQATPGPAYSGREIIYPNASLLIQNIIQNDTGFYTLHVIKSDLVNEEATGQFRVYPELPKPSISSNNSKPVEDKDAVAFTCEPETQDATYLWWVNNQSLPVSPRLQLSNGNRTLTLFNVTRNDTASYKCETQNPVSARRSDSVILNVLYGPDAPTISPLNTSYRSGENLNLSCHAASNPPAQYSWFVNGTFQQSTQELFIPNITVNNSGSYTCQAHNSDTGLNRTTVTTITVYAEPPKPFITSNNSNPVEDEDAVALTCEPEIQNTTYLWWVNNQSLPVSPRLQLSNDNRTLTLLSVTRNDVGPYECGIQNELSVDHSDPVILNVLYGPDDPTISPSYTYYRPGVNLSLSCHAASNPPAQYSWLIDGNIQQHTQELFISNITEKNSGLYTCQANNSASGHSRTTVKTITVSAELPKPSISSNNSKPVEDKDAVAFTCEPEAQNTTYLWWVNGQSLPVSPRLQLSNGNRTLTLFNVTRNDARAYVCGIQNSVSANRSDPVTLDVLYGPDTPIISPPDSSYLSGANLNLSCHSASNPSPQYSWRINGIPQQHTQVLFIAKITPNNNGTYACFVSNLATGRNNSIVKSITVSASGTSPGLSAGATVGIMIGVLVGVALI


Columns and labels:
[1] = target: T1, human CEA expressed on tumor cells; assay: cell-based or functional assay
[2] = target: T2, human CD3 expressed on Jurkat cells (human, UniProt P07766 23-207); assay: flow cytometry on Jurkat cells
T2 construct: CD3 complex on Jurkat cells (ATCC TIB-152); also called huCD3
T2 sequence (P07766 23-207 limits assumed): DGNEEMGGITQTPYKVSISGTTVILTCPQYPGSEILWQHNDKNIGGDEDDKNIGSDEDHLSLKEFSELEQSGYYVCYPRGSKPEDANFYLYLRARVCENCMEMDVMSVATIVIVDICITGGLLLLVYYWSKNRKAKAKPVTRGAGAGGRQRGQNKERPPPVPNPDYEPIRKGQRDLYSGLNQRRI
Procedure: Binding of the different bispecific constructs to CD3 on Jurkat cells (ATCC #TIB-152), and the respective tumor antigen on target cells, was determined by FACS. Briefly, cells were harvested, counted and checked for viability. 0.15 - 0.2 million cells per well (in PBS containing 0.1% BSA; 90 µl) were plated in a round-bottom 96-well plate and incubated with the indicated concentration of the bispecific constructs and corresponding IgG controls (10 µl) for 30 min at 4° C. For a better comparison, all constructs and IgG controls were normalized to same molarity. After the incubation, cells were centrifuged (5 min, 350 × g), washed with 150 µl PBS containing 0.1% BSA, resuspended and incubated for further 30 min at 4° C. with 12 µl/well of a FITC-or PE-conjugated secondary antibody. Bound constructs were detected using a FACSCantoII (Software FACS Diva). The “(scFv)₂” molecule was detected using a FITC-conjugated anti-His antibody (Lucerna, #RHIS-45F-Z). For all other molecules, a FITC- or PE-conjugated AffiniPure F(ab′)2 Fragment goat anti-human IgG Fcγ Fragment Specific (Jackson Immuno Research Lab # 109-096-098 / working solution 1:20, or #109-116-170 / working solution 1:80, respectively) was used. Cells were washed by addition of 120 µl/well PBS containing 0.1% BSA and centrifugation at 350 × g for 5 min. A second washing step was performed with 150 µl/well PBS containing 0.1% BSA. Unless otherwise indicated, cells were fixed with 100 µl/well fixation buffer (BD #554655) for 15 min at 4° C. in the dark, centrifuged for 6 min at 400 × g and kept in 200 µl/well PBS containing 0.1% BSA until the samples were measured with FACS CantoII. EC50 values were calculated using the GraphPad Prism software.
(§1) As a control, the equivalent maximum concentration of the corresponding IgGs and the background staining due to the labeled 2ndary antibody (goat anti-human FITC-conjugated AffiniPure F(ab′)2 Fragment, Fcγ Fragment-specific, Jackson Immuno Research Lab # 109-096-098) were assessed as well.

[3] = target: T1, human CEA expressed on tumor cells; assay: flow cytometry on LS-174T cells
Procedure: Binding of the different bispecific constructs to CD3 on Jurkat cells (ATCC #TIB-152), and the respective tumor antigen on target cells, was determined by FACS. Briefly, cells were harvested, counted and checked for viability. 0.15 - 0.2 million cells per well (in PBS containing 0.1% BSA; 90 µl) were plated in a round-bottom 96-well plate and incubated with the indicated concentration of the bispecific constructs and corresponding IgG controls (10 µl) for 30 min at 4° C. For a better comparison, all constructs and IgG controls were normalized to same molarity. […] Bound constructs were detected using a FACSCantoII (Software FACS Diva). The “(scFv)₂” molecule was detected using a FITC-conjugated anti-His antibody (Lucerna, #RHIS-45F-Z). […] Unless otherwise indicated, cells were fixed with 100 µl/well fixation buffer (BD #554655) for 15 min at 4° C. in the dark, centrifuged for 6 min at 400 × g and kept in 200 µl/well PBS containing 0.1% BSA until the samples were measured with FACS CantoII. EC50 values were calculated using the GraphPad Prism software.
as §1

[4] = target: T3, Human EGFR (immobilized on CM5 sensor chip) (human, UniProt P00533 25-645, limits assumed); assay: SPR; construct (200 nM) captured on immobilized human EGFR, then CD3 fusion injected (FIG. 18C)
T3 construct: 8000 RU immobilized by amine coupling; also called Epidermal Growth Factor Receptor
Procedure: (§2) Analysis of simultaneous binding of the T-cell bispecific constructs to the tumor antigen and the human CD3ε was performed by direct coupling of 1650 resonance units (RU) of biotinylated D3 domain of MCSP on a sensor chip SA using the standard coupling procedure. Human EGFR was immobilized using standard amino coupling procedure. 8000 RU were immobilized on a CM5 sensor chip at pH 5.5.
(§3) Different T-cell bispecific constructs were captured for 60 s at 200 nM. Human CD3γ(G₄S)₅CD3ε-AcTev-Fc(knob)-Avi/Fc(hole) was subsequently passed at a concentration of 2000 nM and a flow rate of 40 µl/min for 60 s. Bulk refractive index differences were corrected for by subtracting the response obtained on a reference flow cell where the recombinant CD3ε was flown over a surface with immobilized D3 domain of MCSP or EGFR without captured T-cell bispecific constructs.

[5] = target: T3, Human EGFR (immobilized on CM5 sensor …); assay: SPR; construct (200 nM) captured on immobilized human EGFR, then CD3 fusion injected (FIG. 18A)
Procedure: as §2, §3

[6] = target: T3, Human EGFR (immobilized on CM5 sensor …); assay: SPR; construct (200 nM) captured on immobilized human EGFR, then CD3 fusion injected (FIG. 18B)
Procedure: as §2, §3

| Binder | EC50 of killing (LDH release) of LS-174T cells, human PBMCs, E:T 10:1, 28 h [1] [nM] | EC50 of killing (LDH release) of MKN-45 cells, human PBMCs, E:T 10:1, 28 h [1] [nM] | EC50 [2] [nM] | EC50 [3] [nM] | other results |
| --- | --- | --- | --- | --- | --- |
| CEA/CD3 “2+1 IgG Crossfab, inverted (CL/CH1)”; CL/CH1 exchange (CH1A1A/V9) (bispecific antibody, 66 is the DNA of 65; also called CL/CH1-exchange construct) heavy 1: not shown heavy 2: QVQLVQSGAEVKKPGASVKVSCKASGYTFTEFGMNWVRQAPGQGLEWMGWINTKTGEATYVEEFKGRVTFTTDTSTSTAYMELRSLRSDDTAVYYCARWDFAYYVEAMDYWGQGTTVTVSSASTKGPSVFPLAPSSKSTSGGTAALGCLVKDYFPEPVTVSWNSGALTSGVHTFPAVLQSSGLYSLSSVVTVPSSSLGTQTYICNVNHKPSNTKVDKKVEPKSCDKTHTCPPCPAPEAAGGPSVFLFPPKPKDTLMISRTPEVTCVVVDVSHEDPEVKFNWYVDGVEVHNAKTKPREEQYNSTYRVVSVLTVLHQDWLNGKEYKCKVSNKALGAPIEKTISKAKGQPREPQVCTLPPSRDELTKNQVSLSCAVKGFYPSDIAVEWESNGQPENNYKTTPPVLDSDGSFFLVSKLTVDKSRWQQGNVFSCSVMHEALHNHYTQKSLSLSPGK light 1: DIQMTQSPSSLSASVGDRVTITCKASAAVGTYVAWYQQKPGKAPKLLIYSASYRKRGVPSRFSGSGSGTDFTLTISSLQPEDFATYYCHQYYTYPLFTFGQGTKLEIKRTVAAPSVFIFPPSDEQLKSGTASVVCLLNNFYPREAKVQWKVDNALQSGNSQESVTEQDSKDSTYSLSSTLTLSKADYEKHKVYACEVTHQGLSSPVTKSFNRGEC light 2: DIQMTQSPSSLSASVGDRVTITCRASQDIRNYLNWYQQKPGKAPKLLIYYTSRLESGVPSRFSGSGSGTDYTLTISSLQPEDFATYYCQQGNTLPWTFGQGTKVEIKSSASTKGPSVFPLAPSSKSTSGGTAALGCLVKDYFPEPVTVSWNSGALTSGVHTFPAVLQSSGLYSLSSVVTVPSSSLGTQTYICNVNHKPSNTKVDKKVEPKSC | 0.673 | 0.115 | 3.9 | 6.7 |  |
| CEA/CD3 “2+1 IgG Crossfab, inverted (VL/VH)”; VL/VH exchange (CH1A1A/V9) (bispecific antibody, also called VL/VH-exchange construct) heavy 1: not shown heavy 2: QVQLVQSGAEVKKPGASVKVSCKASGYTFTEFGMNWVRQAPGQGLEWMGWINTKTGEATYVEEFKGRVTFTTDTSTSTAYMELRSLRSDDTAVYYCARWDFAYYVEAMDYWGQGTTVTVSSASTKGPSVFPLAPSSKSTSGGTAALGCLVKDYFPEPVTVSWNSGALTSGVHTFPAVLQSSGLYSLSSVVTVPSSSLGTQTYICNVNHKPSNTKVDKKVEPKSCDKTHTCPPCPAPEAAGGPSVFLFPPKPKDTLMISRTPEVTCVVVDVSHEDPEVKFNWYVDGVEVHNAKTKPREEQYNSTYRVVSVLTVLHQDWLNGKEYKCKVSNKALGAPIEKTISKAKGQPREPQVCTLPPSRDELTKNQVSLSCAVKGFYPSDIAVEWESNGQPENNYKTTPPVLDSDGSFFLVSKLTVDKSRWQQGNVFSCSVMHEALHNHYTQKSLSLSPGK light 1: DIQMTQSPSSLSASVGDRVTITCKASAAVGTYVAWYQQKPGKAPKLLIYSASYRKRGVPSRFSGSGSGTDFTLTISSLQPEDFATYYCHQYYTYPLFTFGQGTKLEIKRTVAAPSVFIFPPSDEQLKSGTASVVCLLNNFYPREAKVQWKVDNALQSGNSQESVTEQDSKDSTYSLSSTLTLSKADYEKHKVYACEVTHQGLSSPVTKSFNRGEC light 2: EVQLVESGGGLVQPGGSLRLSCAASGYSFTGYTMNWVRQAPGKGLEWVALINPYKGVSTYNQKFKDRFTISVDKSKNTAYLQMNSLRAEDTAVYYCARSGYYGDSDWYFDVWGQGTLVTVSSASVAAPSVFIFPPSDEQLKSGTASVVCLLNNFYPREAKVQWKVDNALQSGNSQESVTEQDSKDSTYSLSSTLTLSKADYEKHKVYACEVTHQGLSSPVTKSFNRGEC | 0.955 | 0.243 | 4.6 | 9.3 |  |
| “1+1 IgG scFab, one armed inverted” (anti-EGFR/anti-huCD3) (bispecific antibody) heavy 1: not shown heavy 2: EVQLVESGGGLVQPGGSLRLSCAASGYSFTGYTMNWVRQAPGKGLEWVALINPYKGVSTYNQKFKDRFTISVDKSKNTAYLQMNSLRAEDTAVYYCARSGYYGDSDWYFDVWGQGTLVTVSSASTKGPSVFPLAPSSKSTSGGTAALGCLVKDYFPEPVTVSWNSGALTSGVHTFPAVLQSSGLYSLSSVVTVPSSSLGTQTYICNVNHKPSNTKVDKKVEPKSCDKTHTCPPCPAPEAAGGPSVFLFPPKPKDTLMISRTPEVTCVVVDVSHEDPEVKFNWYVDGVEVHNAKTKPREEQYNSTYRVVSVLTVLHQDWLNGKEYKCKVSNKALGAPIEKTISKAKGQPREPQVCTLPPSRDELTKNQVSLSCAVKGFYPSDIAVEWESNGQPENNYKTTPPVLDSDGSFFLVSKLTVDKSRWQQGNVFSCSVMHEALHNHYTQKSLSLSPGK light: not shown |  |  |  |  | binding result [4]: binds |
| “2+1 IgG scFab, P329G LALA” (anti-EGFR/anti-huCD3) (bispecific antibody) heavy 1: not shown heavy 2: QVQLVQSGAEVKKPGSSVKVSCKASGFTFTDYKIHWVRQAPGQGLEWMGYFNPNSGYSTYAQKFQGRVTITADKSTSTAYMELSSLRSEDTAVYYCARLSPGGYYVMDAWGQGTTVTVSSASTKGPSVFPLAPSSKSTSGGTAALGCLVKDYFPEPVTVSWNSGALTSGVHTFPAVLQSSGLYSLSSVVTVPSSSLGTQTYICNVNHKPSNTKVDKKVEPKSCDKTHTCPPCPAPEAAGGPSVFLFPPKPKDTLMISRTPEVTCVVVDVSHEDPEVKFNWYVDGVEVHNAKTKPREEQYNSTYRVVSVLTVLHQDWLNGKEYKCKVSNKALGAPIEKTISKAKGQPREPQVCTLPPSRDELTKNQVSLSCAVKGFYPSDIAVEWESNGQPENNYKTTPPVLDSDGSFFLVSKLTVDKSRWQQGNVFSCSVMHEALHNHYTQKSLSLSPGK light: DIQMTQSPSSLSASVGDRVTITCRASQGINNYLNWYQQKPGKAPKRLIYNTNNLQTGVPSRFSGSGSGTEFTLTISSLQPEDFATYYCLQHNSFPTFGQGTKLEIKRTVAAPSVFIFPPSDEQLKSGTASVVCLLNNFYPREAKVQWKVDNALQSGNSQESVTEQDSKDSTYSLSSTLTLSKADYEKHKVYACEVTHQGLSSPVTKSFNRGEC |  |  |  |  | binding result [5]: binds |
| “1+1 IgG scFab, one armed” (anti-EGFR/anti-huCD3) (bispecific antibody) heavy 1: not shown heavy 2: QVQLVQSGAEVKKPGSSVKVSCKASGFTFTDYKIHWVRQAPGQGLEWMGYFNPNSGYSTYAQKFQGRVTITADKSTSTAYMELSSLRSEDTAVYYCARLSPGGYYVMDAWGQGTTVTVSSASTKGPSVFPLAPSSKSTSGGTAALGCLVKDYFPEPVTVSWNSGALTSGVHTFPAVLQSSGLYSLSSVVTVPSSSLGTQTYICNVNHKPSNTKVDKKVEPKSCDKTHTCPPCPAPEAAGGPSVFLFPPKPKDTLMISRTPEVTCVVVDVSHEDPEVKFNWYVDGVEVHNAKTKPREEQYNSTYRVVSVLTVLHQDWLNGKEYKCKVSNKALGAPIEKTISKAKGQPREPQVCTLPPSRDELTKNQVSLSCAVKGFYPSDIAVEWESNGQPENNYKTTPPVLDSDGSFFLVSKLTVDKSRWQQGNVFSCSVMHEALHNHYTQKSLSLSPGK light: DIQMTQSPSSLSASVGDRVTITCRASQGINNYLNWYQQKPGKAPKRLIYNTNNLQTGVPSRFSGSGSGTEFTLTISSLQPEDFATYYCLQHNSFPTFGQGTKLEIKRTVAAPSVFIFPPSDEQLKSGTASVVCLLNNFYPREAKVQWKVDNALQSGNSQESVTEQDSKDSTYSLSSTLTLSKADYEKHKVYACEVTHQGLSSPVTKSFNRGEC |  |  |  |  | binding result [6]: binds |
